T1: human CD25 (IL-2R alpha) on HEK-Blue IL-2 reporter cells (human, UniProt P01589 22-272)
T1 sequence: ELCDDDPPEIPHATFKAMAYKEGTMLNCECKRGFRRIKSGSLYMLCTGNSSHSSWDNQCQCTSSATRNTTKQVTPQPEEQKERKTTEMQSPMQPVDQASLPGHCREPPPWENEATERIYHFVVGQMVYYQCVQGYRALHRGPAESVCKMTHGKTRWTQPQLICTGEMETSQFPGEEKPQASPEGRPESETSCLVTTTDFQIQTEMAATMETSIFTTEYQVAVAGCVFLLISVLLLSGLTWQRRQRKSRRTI

B1: mouse IL-2 (ligand, UniProt P04351 21-169, looked up)
chain: APTSSSTSSSTAEAQQQQQQQQQQQQHLEQLLMDLQELLSRMENYRNLKLPRMLTFKFYLPKQATELKDLQCLEDELGPLRHVLDLTQSKSFQLEDAENFISNIRVTVVKLKGSDNTFECQFDDESATVVDFLRRWIAFCQSIISTSPQ
B2: anti-mPD-1 mAb 4H2 fused to mCD25 variant a (full-length mCD25 ECD) (other)
heavy: QVQLKESGPGLVQPSQTLSLTCTVSGFSLTSYNVHWVRQPPGKGLEWMGGMRYNEDTSYNSALKSRLSISRDTSKNQVFLKMNSLQTDDTGTYYCTRDAVYGGYGGWFAYWGQGTLVTVSSAKTTPPSVYPLAPGSAAQTNSMVTLGCLVKGYFPEPVTVTWNSGSLSSGVHTFPAVLESDLYTLSSSVTVPSSTWPSETVTCNVAHPASSTKVDKKIVPRDCGCKPCICTVPEVSSVFIFPPKPKDVLTITLTPKVTCVVVAISKDDPEVQFSWFVDDVEVHTAQTQPREEQFNSTFRSVSELPIMHQDWLNGKEFKCRVNSAAFPAPIEKTISKTKGRPKAPQVYTIPPPKKQMAKDKVSLTCMITDFFPEDITVEWQWNGQPAENYKNTQPIMKTDGSYFVYSKLNVQKSNWEAGNTFTCSVLHEGLHNHHTEKSLSHSPGGGGSGGGGSGGGGSELCLYDPPEVPNATFKALSYKNGTILNCECKRGFRRLKELVYMRCLGNSWSSNCQCTSNSHDKSRKQVTAQLEHQKEQQTTTDMQKPTQSMHQENLTGHCREPPPWKHEDSKRIYHFVEGQSVHYECIPGYKALQRGPAISICKMKCGKTGWTQPQLTCVDEREHHRFLASEESQGSRNSSPESETSCPITTTDFPQPTETTAMTETFVLTMEYK
light: DTVLTQSPALAVSLGQRVTISCKASETVSSSMYSYIHWYQQKPGQQPKLLIYRASNLESGVPARFSGSGSGTDFTLTIDPVEADDVATYFCQQSWNPWTFGGGTKLELKRADAAPTVSIFPPSSEQLTSGGASVVCFLNNFYPKDINVKWKIDGSERQNGVLNSWTDQDSKDSTYSMSSTLTLTKDEYERHNSYTCEATHKTSTSPIVKSFNRNEC
notes: also called 4H2-mCD25 variant a; mPD1-mCD25 variant a
B3: anti-mPD-1 mAb 4H2 fused to mCD25 variant b (other)
heavy: QVQLKESGPGLVQPSQTLSLTCTVSGFSLTSYNVHWVRQPPGKGLEWMGGMRYNEDTSYNSALKSRLSISRDTSKNQVFLKMNSLQTDDTGTYYCTRDAVYGGYGGWFAYWGQGTLVTVSSAKTTPPSVYPLAPGSAAQTNSMVTLGCLVKGYFPEPVTVTWNSGSLSSGVHTFPAVLESDLYTLSSSVTVPSSTWPSETVTCNVAHPASSTKVDKKIVPRDCGCKPCICTVPEVSSVFIFPPKPKDVLTITLTPKVTCVVVAISKDDPEVQFSWFVDDVEVHTAQTQPREEQFNSTFRSVSELPIMHQDWLNGKEFKCRVNSAAFPAPIEKTISKTKGRPKAPQVYTIPPPKKQMAKDKVSLTCMITDFFPEDITVEWQWNGQPAENYKNTQPIMKTDGSYFVYSKLNVQKSNWEAGNTFTCSVLHEGLHNHHTEKSLSHSPGGGGSGGGGSGGGGSELCLYDPPEVPNATFKALSYKNGTILNCECKRGFRRLKELVYMRCLGNSWSSNCQCTSNSHDKSRKQVTAQLEHQKEQQTTTDMQKPTQSMHQENLTGHCREPPPWKHEDSKRIYHFVEGQSVHYECIPGYKALQRGPAISICKMKCGKTGWTQPQLTCVDEREHHRFLASEESQGSRNSSPESETSCPITTTDFPQP
light: B2 light
notes: also called 4H2-mCD25 variant b; mPD1-mCD25 variant b

In assay [1] the target is fully mCD25 modified anti-mPD-1 antibody 4H2, (4H2 mG1 D265A KK CD25.b)2. The assay is described as follows: cell-based or functional assay.
The target in assay [2] is T1, human CD25 (IL-2R alpha) on HEK-Blue …. In words: cell-based or functional assay.
The target of assay [3] is hemi-mCD25 modified anti-mPD-1 antibody 4H2 (4H2 mG1 D265A KK CD25.b+4H2 mG1 D265A blank). The assay is described as follows: cell-based or functional assay.
For the assay “mouse IL-2”, the target named is B1. The assay is described as follows: SPR, Biacore T200, 37° C., fusion captured by anti-mouse IgG on CM4 chip, mIL-2 as analyte. As to the method:
Truncations of mCD25 are presented at FIG. 3A.
Unless otherwise indicated, binding kinetics were determined with a BIACORE® SPR surface plasmon resonance spectrometer (Biacore AB, Uppsala, Sweden). […] The assay temperature was 37° C. and the running buffer was HEPES buffered saline pH 7.4 supplemented with 0.05% (v/v) Tween-20 and 1 g/L BSA. Purified mPD1−mCD25 variants were captured on a Biacore™ CM4 chip with immobilized anti-mouse IgG polyclonal capture antibody. […] Between cycles, the capture surface was regenerated for three minutes with 10 mM Glycine pH 1.7. Double-referenced sensorgrams were fitted to a 1:1 Langmuir binding model with mass transport to determine equilibrium dissociation constants (KD), as well as association (kₐ) and dissociation (kd) rate constants where appropriate.

For the molecule B1, in assay [1], the “EC50 of mIL-2 (read off the curve) with 260 pM fusion; SEAP reporter (ABS620), CD25- mPD-1+ HEK-Blue IL-2 cells” value is ~200 pM and the “EC50 of mIL-2 (read off the curve) with 2.6 nM fusion; SEAP reporter (ABS620), CD25- mPD-1+ HEK-Blue IL-2 cells” value is ~0.1 nM. Also, in assay [2], the “EC50 (read off the curve); SEAP reporter (ABS620), HEK-Blue IL-2 CD25+ cells” value was ~0.05 nM. In addition, in assay [3], the “EC50 of mIL-2 (read off the curve) with 280 pM fusion; SEAP reporter (ABS620), CD25- mPD-1+ HEK-Blue IL-2 cells” value was ~300 pM and the “EC50 of mIL-2 (read off the curve) with 2.8 nM fusion; SEAP reporter (ABS620), CD25- mPD-1+ HEK-Blue IL-2 cells” value was ~0.1 nM.
B2: the Kd in the assay with mouse IL-2 was 14 nM.
With B3, in the assay with mouse IL-2, binding was put at a Kd of 14 nM.

For the origin of these results see patent US20230416364A1 (Bristol-Myers Squibb, published 2023).
